Laboratory results reported in article PMC8653965, “Direct Electrochemical Generation of Catalytically Competent Oxyferryl Species of Classes I and P Dye Decolorizing Peroxidases” (International Journal of Molecular Sciences, 2021).

Substrate: CCn1c(=NN=c2sc3cc(S(=O)(=O)O)ccc3n2CC)sc2cc(S(=O)(=O)O)ccc21
Assay: purified protein
Assay type: biochemical, Bacillus subtilis
Settings: no H2O2, applied potential −0.190 V, aerobic (O2), pH 7.6, 298 K, 20 mM TRIS-HCl, 200 mM KCl, 25.0 °C

B1: BsDyP (Bacillus subtilis subsp. subtilis str. 168) (protein)
chain: IGASGLGGLAPLVQTAAKPSKKDEKEEEQIVPFYGKHQAGITTAHQTYVYFAALDVTAKDKSDIITLFRNWTSLTQMLTSGKKMSAEQRNQYLPPQDTGESADLSPSNLTVTFGFGPGFFEKDGKDRFGLKSKKPKHLAALPAMPNDNLDEKQGGGDICIQVCADDEQVAFHALRNLLNQAVGTCEVRFVNKGFLSGGKNGETPRNLFGFKDGTGNQSTKDDTLMNSIVWIQSGEPDWMTGGTYMAFRKIKMFLEVWDRSSLKDQEDTFGRRKSSGAPFGQKKETDPVKLNQIPSNSHVSLAKSTGKQILRRAFSYTEGLDPKTGYMDAGLLFISFQKNPDNQFIPMLKALSAKDALNEYTQTIGSALYACPGGCKKGEYIAQRLLES
notes: signal (Tat) peptide deleted; plasmid pVB4; expressed in E. coli Tuner; purified
What does the source list for B1?
Km: 1155 ± 100 µM; kcat: 18 ± 1 s⁻¹; kcat/Km: 16000 M⁻¹ s⁻¹
